Values of other authors, collected in paper PMC9858354.

Target: CCRL2 (Homo sapiens) (UniProt O00421)
Experiment: radioligand

Sequence of CCRL2 (Homo sapiens) (O00421 whole entry): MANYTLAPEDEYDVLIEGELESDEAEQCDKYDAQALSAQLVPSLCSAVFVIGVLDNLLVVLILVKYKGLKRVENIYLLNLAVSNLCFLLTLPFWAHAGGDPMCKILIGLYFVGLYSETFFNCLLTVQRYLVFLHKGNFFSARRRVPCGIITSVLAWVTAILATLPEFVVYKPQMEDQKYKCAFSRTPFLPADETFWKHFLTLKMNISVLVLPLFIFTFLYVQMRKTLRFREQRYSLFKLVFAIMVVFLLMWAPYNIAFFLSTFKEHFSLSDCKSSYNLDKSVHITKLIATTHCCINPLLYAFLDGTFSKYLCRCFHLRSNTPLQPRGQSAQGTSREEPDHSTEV
Sequence of chemerin (Q99969 21-157): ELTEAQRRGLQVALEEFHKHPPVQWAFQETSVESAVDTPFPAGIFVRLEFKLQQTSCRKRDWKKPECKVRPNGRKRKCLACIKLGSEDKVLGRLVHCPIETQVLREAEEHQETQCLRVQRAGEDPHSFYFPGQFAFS

In the case of chemerin (from UniProt Q99969), the Kd is listed as 2.35 nM.
